# From patent publication US20230372522A1 (KUNMING SINOWAY NATURAL PHARMACEUTICALS, published 2023)
# B1: Recombinant immunotoxin VH ver 1 + VL ver 4 (H1L4 by the HmLn naming of paragraph 88) (other)
# VL: MDIQMTQSPSTLSASVGDRVTITCRASQDISNYLNWFQQRPGQSPRLLIYYTSILHSGVPSRFSGSGSGTDYTLTISSLQPEDFATYYCQQGNTLPWTFGCGTKVEIK
# chain: MEVQLVESGGGLVKPGGSLRLSCAASGFAFSIYDMSWVRQAPGKCLEWVAYISSGGGTTYYPDSVKGRFTISRENAKNSLYLQMNSLKSEDTAMYYCARHSGYGTHWGVLFAYWGQGTMVTVSSKASGGPEGGSLAALTAHQACHLPLETFTRHRQPRGWEQLEQCGYPVQRLVALYLAARLSWNQVDQVIRNALASPGSGGDLGEAIREQPEQARLALTLAAAESERFVRQGTGNDEAGAANGPADSGDALLERNYPTGAEFLGDGGDVSFSTRGTQNWTVERLLQAHRQLEERGYVFVGYHGTFLEAAQSIVFGGVRARSQDLDAIWRGFYIAGDPALAYGYAQDQEPDARGRIRNGALLRVYVPRSSLPGFYRTSLTLAAPEAAGEVERLIGHPLPLRLDAITGPEEEGGRLETILGWPLAERTVVIPSAIPTDPRNVGGDLDPSSIPDKEQAISALPDYASQPGKPPREDLK
# notes: dsFv-PE38 heterodimer
# B2: HA22 (moxetumomab pasudotox; HA22 VH-PE38 + HA22 VL), made in-house (other)
# VL: MDIQMTQTTSSLSASLGDRVTISCRASQDISNYLNWYQQKPDGTVKLLIYYTSILHSGVPSRFSGSGSGTDYSLTISNLEQEDFATYFCQQGNTLPWTFGCGTKLEIK
# chain: MEVQLVESGGGLVKPGGSLKLSCAASGFAFSIYDMSWVRQTPEKCLEWVAYISSGGGTTYYPDTVKGRFTISRDNAKNTLYLQMSSLKSEDTAMYYCARHSGYGTHWGVLFAYWGQGTLVTVSAKASGGPEGGSLAALTAHQACHLPLETFTRHRQPRGWEQLEQCGYPVQRLVALYLAARLSWNQVDQVIRNALASPGSGGDLGEAIREQPEQARLALTLAAAESERFVRQGTGNDEAGAANGPADSGDALLERNYPTGAEFLGDGGDVSFSTRGTQNWTVERLLQAHRQLEERGYVFVGYHGTFLEAAQSIVFGGVRARSQDLDAIWRGFYIAGDPALAYGYAQDQEPDARGRIRNGALLRVYVPRSSLPGFYRTSLTLAAPEAAGEVERLIGHPLPLRLDAITGPEEEGGRLETILGWPLAERTVVIPSAIPTDPRNVGGDLDPSSIPDKEQAISALPDYASQPGKPPREDLK
# notes: also called CAT-8015; HA22 VH / HA22 VL
# B3: Recombinant immunotoxin VH ver 2 + HA22 VL (other)
# VL: MDIQMTQTTSSLSASLGDRVTISCRASQDISNYLNWYQQKPDGTVKLLIYYTSILHSGVPSRFSGSGSGTDYSLTISNLEQEDFATYFCQQGNTLPWTFGCGTKLEIK
# chain: MEVQLVESGGGLVKPGGSLRLSCAASGFAFSIYDMSWVRQTPEKCLEWVAYISSGGGTTYYPDSVKGRFTISRENAKNSLYLQMNSLKSEDTAMYYCARHSGYGTHWGVLFAYWGQGTMVTVSSKASGGPEGGSLAALTAHQACHLPLETFTRHRQPRGWEQLEQCGYPVQRLVALYLAARLSWNQVDQVIRNALASPGSGGDLGEAIREQPEQARLALTLAAAESERFVRQGTGNDEAGAANGPADSGDALLERNYPTGAEFLGDGGDVSFSTRGTQNWTVERLLQAHRQLEERGYVFVGYHGTFLEAAQSIVFGGVRARSQDLDAIWRGFYIAGDPALAYGYAQDQEPDARGRIRNGALLRVYVPRSSLPGFYRTSLTLAAPEAAGEVERLIGHPLPLRLDAITGPEEEGGRLETILGWPLAERTVVIPSAIPTDPRNVGGDLDPSSIPDKEQAISALPDYASQPGKPPREDLK
# notes: dsFv-PE38 heterodimer
# B4: H1L2 humanized anti-CD22 recombinant immunotoxin (VH ver 1 + VL ver 2) (other)
# VL: MDIQMTQSTSTLSASVGDRVTITCRASQDISNYLNWYQQRPDGSVKLLIYYTSILHSGVPSRFSGSGSGTDYTLTISSLQDEDFATYFCQQGNTLPWTFGCGTKVEIK
# chain: MEVQLVESGGGLVKPGGSLRLSCAASGFAFSIYDMSWVRQAPGKCLEWVAYISSGGGTTYYPDSVKGRFTISRENAKNSLYLQMNSLKSEDTAMYYCARHSGYGTHWGVLFAYWGQGTMVTVSSKASGGPEGGSLAALTAHQACHLPLETFTRHRQPRGWEQLEQCGYPVQRLVALYLAARLSWNQVDQVIRNALASPGSGGDLGEAIREQPEQARLALTLAAAESERFVRQGTGNDEAGAANGPADSGDALLERNYPTGAEFLGDGGDVSFSTRGTQNWTVERLLQAHRQLEERGYVFVGYHGTFLEAAQSIVFGGVRARSQDLDAIWRGFYIAGDPALAYGYAQDQEPDARGRIRNGALLRVYVPRSSLPGFYRTSLTLAAPEAAGEVERLIGHPLPLRLDAITGPEEEGGRLETILGWPLAERTVVIPSAIPTDPRNVGGDLDPSSIPDKEQAISALPDYASQPGKPPREDLK
# notes: dsFv-PE38 heterodimer, VH and VL linked by a disulfide bond
# B5: H2L2 humanized anti-CD22 recombinant immunotoxin (VH ver 2 + VL ver 2) (other)
# VL: MDIQMTQSTSTLSASVGDRVTITCRASQDISNYLNWYQQRPDGSVKLLIYYTSILHSGVPSRFSGSGSGTDYTLTISSLQDEDFATYFCQQGNTLPWTFGCGTKVEIK
# chain: MEVQLVESGGGLVKPGGSLRLSCAASGFAFSIYDMSWVRQTPEKCLEWVAYISSGGGTTYYPDSVKGRFTISRENAKNSLYLQMNSLKSEDTAMYYCARHSGYGTHWGVLFAYWGQGTMVTVSSKASGGPEGGSLAALTAHQACHLPLETFTRHRQPRGWEQLEQCGYPVQRLVALYLAARLSWNQVDQVIRNALASPGSGGDLGEAIREQPEQARLALTLAAAESERFVRQGTGNDEAGAANGPADSGDALLERNYPTGAEFLGDGGDVSFSTRGTQNWTVERLLQAHRQLEERGYVFVGYHGTFLEAAQSIVFGGVRARSQDLDAIWRGFYIAGDPALAYGYAQDQEPDARGRIRNGALLRVYVPRSSLPGFYRTSLTLAAPEAAGEVERLIGHPLPLRLDAITGPEEEGGRLETILGWPLAERTVVIPSAIPTDPRNVGGDLDPSSIPDKEQAISALPDYASQPGKPPREDLK
# notes: dsFv-PE38 heterodimer
# B6: Recombinant immunotoxin VH ver 5 + VL ver 4 (H5L4 by the HmLn naming of paragraph 88) (other)
# VL: MDIQMTQSPSTLSASVGDRVTITCRASQDISNYLNWFQQRPGQSPRLLIYYTSILHSGVPSRFSGSGSGTDYTLTISSLQPEDFATYYCQQGNTLPWTFGCGTKVEIK
# chain: MEVQLVESGGGLVKPGGSLRLSCAASGFAFSIYDMSWIRQAPGKCLEWVAYISSGGGTTYYPGSVKGRFTISRENAKNSLYLQMNSLRSEDTAVYYCARHSGYGTHWGVLFAYWGQGTMVTVSSKASGGPEGGSLAALTAHQACHLPLETFTRHRQPRGWEQLEQCGYPVQRLVALYLAARLSWNQVDQVIRNALASPGSGGDLGEAIREQPEQARLALTLAAAESERFVRQGTGNDEAGAANGPADSGDALLERNYPTGAEFLGDGGDVSFSTRGTQNWTVERLLQAHRQLEERGYVFVGYHGTFLEAAQSIVFGGVRARSQDLDAIWRGFYIAGDPALAYGYAQDQEPDARGRIRNGALLRVYVPRSSLPGFYRTSLTLAAPEAAGEVERLIGHPLPLRLDAITGPEEEGGRLETILGWPLAERTVVIPSAIPTDPRNVGGDLDPSSIPDKEQAISALPDYASQPGKPPREDLK
# notes: dsFv-PE38 heterodimer
# B7: Recombinant immunotoxin VH ver 1 + VL ver 3 (H1L3 by the HmLn naming of paragraph 88) (other)
# VL: MDIQMTQSPSTLSASVGDRVTITCRASQDISNYLNWFQQRPGQSPRRLIYYTSILHSGVPSRFSGSGSGTDYTLTISSLQPEDFATYYCQQGNTLPWTFGCGTKVEIK
# chain: MEVQLVESGGGLVKPGGSLRLSCAASGFAFSIYDMSWVRQAPGKCLEWVAYISSGGGTTYYPDSVKGRFTISRENAKNSLYLQMNSLKSEDTAMYYCARHSGYGTHWGVLFAYWGQGTMVTVSSKASGGPEGGSLAALTAHQACHLPLETFTRHRQPRGWEQLEQCGYPVQRLVALYLAARLSWNQVDQVIRNALASPGSGGDLGEAIREQPEQARLALTLAAAESERFVRQGTGNDEAGAANGPADSGDALLERNYPTGAEFLGDGGDVSFSTRGTQNWTVERLLQAHRQLEERGYVFVGYHGTFLEAAQSIVFGGVRARSQDLDAIWRGFYIAGDPALAYGYAQDQEPDARGRIRNGALLRVYVPRSSLPGFYRTSLTLAAPEAAGEVERLIGHPLPLRLDAITGPEEEGGRLETILGWPLAERTVVIPSAIPTDPRNVGGDLDPSSIPDKEQAISALPDYASQPGKPPREDLK
# B8: Recombinant immunotoxin VH ver 4 + VL ver 4 (H4L4 by the HmLn naming of paragraph 88) (other)
# VL: MDIQMTQSPSTLSASVGDRVTITCRASQDISNYLNWFQQRPGQSPRLLIYYTSILHSGVPSRFSGSGSGTDYTLTISSLQPEDFATYYCQQGNTLPWTFGCGTKVEIK
# chain: MEVQLVESGGGLVKPGGSLRLSCAASGFAFSIYDMSWIRQAPGKCLEWVAYISSGGGTTYYPGSVKGRFTISRENAKNSLYLQMNSLRAGDTAVYYCARHSGYGTHWGVLFAYWGQGTMVTVSSKASGGPEGGSLAALTAHQACHLPLETFTRHRQPRGWEQLEQCGYPVQRLVALYLAARLSWNQVDQVIRNALASPGSGGDLGEAIREQPEQARLALTLAAAESERFVRQGTGNDEAGAANGPADSGDALLERNYPTGAEFLGDGGDVSFSTRGTQNWTVERLLQAHRQLEERGYVFVGYHGTFLEAAQSIVFGGVRARSQDLDAIWRGFYIAGDPALAYGYAQDQEPDARGRIRNGALLRVYVPRSSLPGFYRTSLTLAAPEAAGEVERLIGHPLPLRLDAITGPEEEGGRLETILGWPLAERTVVIPSAIPTDPRNVGGDLDPSSIPDKEQAISALPDYASQPGKPPREDLK
# notes: dsFv-PE38 heterodimer; The fusion entry is used here
# Columns and labels:
# [1] = target: T1, CD22 on Daudi cells (Daudi cell line expressing a high level of CD22) (UniProt P20273 20-847, limits assumed); test: cell-based or functional assay
# [2] = target: T1, CD22 on Daudi cells (Daudi cell line …); test: cell-based or functional assay; remark: listed apart in the source
# [3] = target: T2, recombinant human Siglec-2/CD22 Fc chimera protein (R&D systems, Cat #1968-SL) (human, UniProt P20273 20-687); test: ELISA, immobilized human CD22 Fc chimera
# T2 construct: Bought reagent, immobilized antigen in the ELISA; Fc part of the bought chimera not given
# [4] = target: T2, recombinant human Siglec-2/CD22 Fc …; test: ELISA, immobilized human CD22 Fc chimera; remark: listed apart in the source
# biotinylated CD22 = biotinylated CD22 (UniProt P20273 20-687, limits assumed, biotinylated (site not stated)); test: Octet (BLI), biotinylated CD22 on streptavidin biosensors
# [5] = target: T2, recombinant human Siglec-2/CD22 Fc …; test: ELISA, immobilized human CD22 Fc chimera, detection with anti-Pseudomonas exotoxin A antibody
binder,measurement,setting,value
B1,"In Vitro potency assay (pM): EC50 of Daudi cell death, CCK-8",[1],13.8 pM
same,"In Vitro potency assay (EC50, normalized against HA22)",[2],4.12 fold of HA22
same,EC50,[3],0.2 nM
same,"EC50, normalized against HA22",[4],1.17 fold of HA22
B2,"In Vitro potency assay (pM): EC50 of Daudi cell death, CCK-8",[1],2.72 pM
same,"In Vitro potency assay (EC50, normalized against HA22)",[2],1 fold of HA22
same,EC50,[3],0.47 nM
same,"EC50, normalized against HA22",[4],1 fold of HA22
same,Kd,biotinylated CD22,4.08 to 5.81 nM
same,EC50,[5],0.47 nM
B3,EC50,[3],0.64 nM
same,"EC50, normalized against HA22",[4],0.89 fold of HA22
B4,"In Vitro potency assay (pM): EC50 of Daudi cell death, CCK-8",[1],4.58 pM
same,"In Vitro potency assay (EC50, normalized against HA22)",[2],1.32 fold of HA22
same,EC50,[3],0.54 nM
same,"EC50, normalized against HA22",[4],0.81 fold of HA22
same,Kd,biotinylated CD22,4.66 to 7.21 nM
same,EC50,[5],0.54 nM
B5,"In Vitro potency assay (pM): EC50 of Daudi cell death, CCK-8",[1],4.26 pM
same,"In Vitro potency assay (EC50, normalized against HA22)",[2],1.23 fold of HA22
same,EC50,[3],0.56 nM
same,"EC50, normalized against HA22",[4],1.1 fold of HA22
same,Kd,biotinylated CD22,5.01 to 7.02 nM
same,EC50,[5],0.56 nM
B6,"In Vitro potency assay (pM): EC50 of Daudi cell death, CCK-8",[1],34.9 pM
same,"In Vitro potency assay (EC50, normalized against HA22)",[2],10.7 fold of HA22
same,EC50,[3],2.15 nM
same,"EC50, normalized against HA22",[4],12.5 fold of HA22
B7,"In Vitro potency assay (pM): EC50 of Daudi cell death, CCK-8",[1],57.2 pM
same,"In Vitro potency assay (EC50, normalized against HA22)",[2],4.59 fold of HA22
B8,EC50,[3],6.73 nM
same,"EC50, normalized against HA22",[4],39.1 fold of HA22
